According to publication PMC4350430:

Molecular target: His6-ΔIBBMOS6 (Arabidopsis thaliana) (UniProt O04294)
Assay: ITC; MicroCal 205, 25°C, 20 mM HEPES, 150 mM NaCl, pH 7.5; His6–ΔIBB–MOS6 in the cell at 43–54 μM, titrated with His6-tagged cargo at 320–940 μM

UniProt O04294, sequence (O04294 whole entry, stated change not applied): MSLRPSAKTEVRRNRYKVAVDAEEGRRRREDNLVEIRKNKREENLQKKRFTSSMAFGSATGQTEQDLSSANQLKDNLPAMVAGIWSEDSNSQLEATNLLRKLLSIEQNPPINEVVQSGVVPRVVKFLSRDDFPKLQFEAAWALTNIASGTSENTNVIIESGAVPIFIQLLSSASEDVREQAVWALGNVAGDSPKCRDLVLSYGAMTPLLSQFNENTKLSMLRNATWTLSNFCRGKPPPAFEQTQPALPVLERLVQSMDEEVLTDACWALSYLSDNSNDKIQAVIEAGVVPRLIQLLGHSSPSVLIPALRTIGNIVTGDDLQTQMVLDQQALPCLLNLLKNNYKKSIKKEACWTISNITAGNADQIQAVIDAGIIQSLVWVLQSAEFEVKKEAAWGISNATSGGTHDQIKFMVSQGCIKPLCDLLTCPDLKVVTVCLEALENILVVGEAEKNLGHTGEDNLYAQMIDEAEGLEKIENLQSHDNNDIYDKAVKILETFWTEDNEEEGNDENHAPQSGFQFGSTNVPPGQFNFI

Substance	Kd	stoichiometry N
HaRxL106ΔC–SV40NLS fusion (recombinant, for ITC)	2.22 to 3.7 µM	–
His6-HaRxL106 (effector domain, amino acids 46–285) (domain or fragment)	0.54 to 0.85 µM	1
His6–SAP11 (natural protein)	4.42 to 6.8 µM	–
